Data on two molecules can be found in patent US20220288203A1.

The target in test [1] is Human podocalyxin as endogenously expressed and displayed by tumor cell lines (A172, SKOV3, MIA PaCa-2, MDA-MB-231) (human) (UniProt O00592). As to the kind of experiment: KinExA 3200; titrated A172 cells with constant antibody, 16 h equilibrium.
Test [2] has the same target. As to the kind of experiment: flow cytometry titration on A172 cells, four-parameter fit (Prism).
Test [3] has the same target. As to the kind of experiment: KinExA 3200; titrated A172 cells with constant antibody, 16 h equilibrium, free antibody measured.

Sequence of Human podocalyxin as endogenously expressed and displayed by tumor cell lines (A172, SKOV3, MIA PaCa-2, MDA-MB-231) (human) (O00592 23-558): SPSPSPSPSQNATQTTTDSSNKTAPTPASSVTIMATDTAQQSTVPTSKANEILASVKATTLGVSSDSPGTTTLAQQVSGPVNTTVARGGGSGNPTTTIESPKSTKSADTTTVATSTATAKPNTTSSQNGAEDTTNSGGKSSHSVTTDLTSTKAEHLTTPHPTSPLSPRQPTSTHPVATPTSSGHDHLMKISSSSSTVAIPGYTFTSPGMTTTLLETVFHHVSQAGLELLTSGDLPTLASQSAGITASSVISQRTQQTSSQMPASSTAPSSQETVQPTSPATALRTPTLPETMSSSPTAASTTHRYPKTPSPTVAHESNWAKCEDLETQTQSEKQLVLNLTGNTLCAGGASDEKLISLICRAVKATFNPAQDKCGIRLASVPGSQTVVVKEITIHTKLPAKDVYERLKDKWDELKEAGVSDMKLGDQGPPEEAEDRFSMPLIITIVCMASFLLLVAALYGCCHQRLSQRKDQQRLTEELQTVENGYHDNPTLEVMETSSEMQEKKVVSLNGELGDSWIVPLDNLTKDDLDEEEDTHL

B1: Humanized Podo447 (humanized_podo447VH_hIgG1C + humanized_podo447VL6_hIgkC) (antibody, V domains shown)
VH: EVQLVESGGGLVQPGRSLRLSCTASGFSLSGYQMNWVRQAPGKGLEWVGYIWSDGGTDYTASVKGRFTISRDGSKSIAYLQMNSLKTEDTAVYYCAREGYWLGAFDPWGQGTSVTVSA
VL: AAQLTQSPSPLSASVGDRVTITCQSSQSVHHKNDLAWYQQKPGKAPKLLIYYTSTLASGVPSRFSGSGSGTDFTLTISSLQPEDFATYYCAGVYEGSSDNRAFGGGTKVEIKR
In test [1], B1 gave an Epitopes/Cell (epitopes/cell) of 233000, a Kd High of 0.0459 nM and a Kd Low of 0.00459 nM. In test [2], the Bottom (best-fit) is 1940, the LogIC50 was found to be 2.09, the Span (best-fit) came to 236000 and the Top (best-fit) was found to be 238000. The Kd in test [3] turned out to be 0.0144 nM.

B2: Podo447, recombinant rabbit/human chimeric anti-podocalyxin antibody (rabbit V genes, human IgG1 and kappa constant regions) (antibody, V domains shown)
VH: QSLEESGGRLVTPGTPLTLTCTASGFSLSGYQMNWVRQAPGKGLEWIGYIWSDGGTDYASWAKGRFTISKTSSTTVDLKMTSLTTEDTATYFCAREGYWLGAFDPWGPGTLVTVSS
VL: AAVLTQTPSPVSAAVGATVSVSCQSSQSVHHKNDLAWFQQKPGQPPKLLIYYTSTLASGVPSRFKGSGSGTQFTLTISDLECDDAATYYCAGVYEGSSDNRAFGGGTEVVVKR
In test [1], B2 returned an Epitopes/Cell (epitopes/cell) of 420000, a Kd High of 0.0249 nM and a Kd Low of 0.0023 nM. In test [2], the Bottom (best-fit) was 8630, the LogIC50 was determined as 2.28, the Span (best-fit) is 371000 and the Top (best-fit) is 380000. In test [3], this molecule had a Kd of 0.00757 nM.
